Data: publication PMC7523096 (bioRxiv, 2020)

Columns and labels:
Assay in all cases: BLI
[1] = biological target: SARS-CoV-2 N-terminal domain-NTD (residue 1-290) (SARS-CoV-2, Wuhan-Hu-1 (MN908947), UniProt P0DTC2)
[2] = biological target: SARS-CoV-2 receptor-binding domain-RBD (residue 320-527) (SARS-CoV-2, Wuhan-Hu-1 (MN908947), UniProt P0DTC2)
[3] = biological target: SARS-CoV-2 RBD-SD1 (residue 320-591) (SARS-CoV-2, Wuhan-Hu-1 (MN908947), UniProt P0DTC2)
[4] = biological target: SARS-CoV-2 RBD-SD1-2 (residue 320-681) (SARS-CoV-2, Wuhan-Hu-1 (MN908947), UniProt P0DTC2)

Measured: binding result

B1: CC9.3 mAb (IgG) (antibody, V domains shown)
VH: QVQLQESGPGLVKPSETLSLTCTVSGGSIRSDFWSWIRQFPGKGLEWIGYIYYSGSTNYNPSLESRVTISVDTSKNEFSLKLNYVTAADTAIYYCARETRWNWLDSWGQGTLVTVSS
VL: DIVMTQSPDSLAVSLGERASINCKSSQTISYISNNKNYLAWYQQKPGQPPRLLIYWASTRESGVPDRFSGGGFGTDFTLTISSLQAEDVAVYYCQQYFNTPWTFGQGTKVEIK
no binding: [1] | [2] | [3] | [4]

B2: CC40.8 mAb (IgG) (antibody, V domains shown)
VH: EVQLLESGGGLVQPGGSLRLSCAASGFTFSSYVMTWARQAPGKGLEWVSAISGTGYTYYADSVKGRFTVSRDNSKNTLFLQMSSLRAEDTAVYYCAITMAPVVWGQGTTVTVSS
VL: SYELTQPPSVSVSPGQTARITCSGDALPKRYAYWYQQKSGQAPILVIYEDKKRPSGIPERLSGSKSGTVATLTISGAQVEDEADYYCYSTDSSGNHAVFGGGTQLTVL
no binding: [1] | [2] | [3] | [4]

B3: second SARS-CoV-2/HCoV-HKU1 cross-reactive mAb from the CC40 donor (other than CC40.8; name not printed in the text) (antibody, V domains shown)
VH: EVQLVESGGGVVQPGRSLRLSCVASGFTFSNYGMHWVRQAPGKGLEWVAVMSYDGSVTYYGDSVRGRFTISRDNSKNTLYLQMSSLRTDDTGVYYCAKGQPLDDIWGLGTLVTVSS
VL: EIVMTQSPLSLPVSLGQSASISCRSSQSLVHTDGITYLSWFQQRPGQSPRRLLYKVSNRDSGVPDRFSGSGSGTDFTLKISRVEAEDVGVYYCLQGTYWPWTFGQGTKVEIK
no binding: [1] | [2] | [3] | [4]

B4: CC9.1 mAb (antibody, V domains shown)
VH: EVQLVESGGGLVQPGRSLRLSCVAPGFTLGGYGMHWVRQAPGKGLEWVGLISYDGSVQKYGSSVKGRFTISKDNSKNTLYLEMNSLRADDTAVYFCVKGASLGDNWGQGTLVTVSS
VL: EIVMTQSPLSLPVTLGQPASISCRSSQSLVYSDGDTYMSWFHQRPGQSPRRLIYKVSNRDSGVPDRFSGSGSGTDFTLKISRVEAEDVGVYYCMQGTHWPYTFGPGTKVEIK
no binding: [1] | [2] | [3] | [4]

B5: CC9.2 mAb (IgG) (antibody, V domains shown)
VH: EVQLVESGGGLVQPGRSLRLSCVAPGFTLGGYGMHWVRQAPGKGLEWVGLISYDGSVQKYGSSVKGRFTISKDNSKNTLYLEMNSLRADDTAVYFCVKGASLGDNWGQGTLVTVSS
VL: EIVMTQSPLSLPVTLGQPASISCRSSQSLVYSDGDTYMSWFHQRPGQSPRRLIYKVSNRDFGVPDRFSGSGSGTDFTLKISRVEAEDVGVYYCMQGTHWPYTFGPGTKVEIK
no binding: [1] | [2] | [3] | [4]
